Reference: IntAct's records for PubMed 31515488

B1: KAT8 regulatory NSL complex subunit 1 (Homo sapiens), Q7Z3B3 (parent)
chain: MAAMAPALTDAAAEAHHIRFKLAPPSSTLSPGSAENNGNANILIAANGTKRKAIAAEDPSLDFRNNPTKEDLGKLQPLVASYLCSDVTSVPSKESLKLQGVFSKQTVLKSHPLLSQSYELRAELLGRQPVLEFSLENLRTMNTSGQTALPQAPVNGLAKKLTKSSTHSDHDNSTSLNGGKRALTSSALHGGEMGGSESGDLKGGMTNCTLPHRSLDVEHTTLYSNNSTANKSSVNSMEQPALQGSSRLSPGTDSSSNLGGVKLEGKKSPLSSILFSALDSDTRITALLRRQADIESRARRLQKRLQVVQAKQVERHIQHQLGGFLEKTLSKLPNLESLRPRSQLMLTRKAEAALRKAASETTTSEGLSNFLKSNSISEELERFTASGIANLRCSEQAFDSDVTDSSSGGESDIEEEELTRADPEQRHVPLRRRSEWKWAADRAAIVSRWNWLQAHVSDLEYRIRQQTDIYKQIRANKGLIVLGEVPPPEHTTDLFLPLSSEVKTDHGTDKLIESVSQPLENHGAPIIGHISESLSTKSCGALRPVNGVINTLQPVLADHIPGDSSDAEEQLHKKQRLNLVSSSSDGTCVAARTRPVLSCKKRRLVRPNSIVPLSKKVHRNSTIRPGCDVNPSCALCGSGSINTMPPEIHYEAPLLERLSQLDSCVHPVLAFPDDVPTSLHFQSMLKSQWQNKPFDKIKPPKKLSLKHRAPMPGSLPDSARKDRHKLVSSFLTTAKLSHHQTRPDRTHRQHLDDVGAVPMVERVTAPKAERLLNPPPPVHDPNHSKMRLRDHSSERSEVLKHHTDMSSSSYLAATHHPPHSPLVRQLSTSSDSPAPASSSSQVTASTSQQPVRRRRGESSFDINNIVIPMSVAATTRVEKLQYKEILTPSWREVDLQSLKGSPDEENEEIEDLSDAAFAALHAKCEEMERARWLWTTSVPPQRRGSRSYRSSDGRTTPQLGSANPSTPQPASPDVSSSHSLSEYSHGQSPRSPISPELHSAPLTPVARDTPRHLASEDTRCSTPELGLDEQSVQPWERRTFPLAHSPQAECEDQLDAQERAARCTRRTSGSKTGRETEAAPTSPPIVPLKSRHLVAAATAQRPTHR
partner: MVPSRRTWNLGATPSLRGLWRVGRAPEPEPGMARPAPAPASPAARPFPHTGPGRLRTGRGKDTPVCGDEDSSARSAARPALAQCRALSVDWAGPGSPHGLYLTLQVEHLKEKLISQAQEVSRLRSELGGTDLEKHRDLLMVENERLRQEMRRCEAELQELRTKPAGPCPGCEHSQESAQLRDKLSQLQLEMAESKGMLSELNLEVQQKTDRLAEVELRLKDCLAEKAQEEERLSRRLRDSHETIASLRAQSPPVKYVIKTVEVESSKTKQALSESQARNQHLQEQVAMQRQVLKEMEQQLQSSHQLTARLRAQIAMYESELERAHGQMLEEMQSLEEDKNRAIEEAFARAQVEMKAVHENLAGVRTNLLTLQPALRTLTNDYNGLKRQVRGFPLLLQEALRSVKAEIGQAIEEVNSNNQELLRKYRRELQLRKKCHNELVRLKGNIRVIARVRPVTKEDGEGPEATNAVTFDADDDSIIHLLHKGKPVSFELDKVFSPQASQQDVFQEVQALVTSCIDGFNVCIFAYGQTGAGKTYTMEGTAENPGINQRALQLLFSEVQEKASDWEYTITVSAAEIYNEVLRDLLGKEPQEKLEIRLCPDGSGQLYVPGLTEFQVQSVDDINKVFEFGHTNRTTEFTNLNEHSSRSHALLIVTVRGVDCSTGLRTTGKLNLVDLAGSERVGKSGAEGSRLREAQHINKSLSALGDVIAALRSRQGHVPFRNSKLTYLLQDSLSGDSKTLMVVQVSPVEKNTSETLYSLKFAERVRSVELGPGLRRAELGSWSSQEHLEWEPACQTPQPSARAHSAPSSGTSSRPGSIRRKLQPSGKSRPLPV
B2: Zyxin (Homo sapiens), Q15942 (parent)
chain: MAAPRPSPAISVSVSAPAFYAPQKKFGPVVAPKPKVNPFRPGDSEPPPAPGAQRAQMGRVGEIPPPPPEDFPLPPPPLAGDGDDAEGALGGAFPPPPPPIEESFPPAPLEEEIFPSPPPPPEEEGGPEAPIPPPPQPREKVSSIDLEIDSLSSLLDDMTKNDPFKARVSSGYVPPPVATPFSSKSSTKPAAGGTAPLPPWKSPSSSQPLPQVPAPAQSQTQFHVQPQPQPKPQVQLHVQSQTQPVSLANTQPRGPPASSPAPAPKFSPVTPKFTPVASKFSPGAPGGSGSQPNQKLGHPEALSAGTGSPQPPSFTYAQQREKPRVQEKQHPVPPPAQNQNQVRSPGAPGPLTLKEVEELEQLTQQLMQDMEHPQRQNVAVNELCGRCHQPLARAQPAVRALGQLFHIACFTCHQCAQQLQGQQFYSLEGAPYCEGCYTDTLEKCNTCGEPITDRMLRATGKAYHPHCFTCVVCARPLEGTSFIVDQANRPHCVPDYHKQYAPRCSVCSEPIMPEPGRDETVRVVALDKNFHMKCYKCEDCGKPLSIEADDNGCFPLDGHVLCRKCHTARAQT
partner: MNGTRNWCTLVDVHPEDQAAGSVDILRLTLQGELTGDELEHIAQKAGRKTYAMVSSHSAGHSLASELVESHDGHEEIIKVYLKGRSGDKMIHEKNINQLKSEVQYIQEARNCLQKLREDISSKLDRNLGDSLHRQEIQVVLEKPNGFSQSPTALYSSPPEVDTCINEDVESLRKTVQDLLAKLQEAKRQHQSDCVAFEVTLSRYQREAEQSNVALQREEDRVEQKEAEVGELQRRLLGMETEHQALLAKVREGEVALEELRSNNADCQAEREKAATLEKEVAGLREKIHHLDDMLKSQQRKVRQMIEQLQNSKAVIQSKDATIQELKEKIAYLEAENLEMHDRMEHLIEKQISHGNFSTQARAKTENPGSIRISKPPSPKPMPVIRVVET
B3: Protein dispatched homolog 1 (Homo sapiens), Q96F81 (parent)
chain: MAMSNGNNDFVVLSNSSIATSAANPSPLTPCDGDHAAQQLTPKEATRTKVSPNGCLQLNGTVKSSFLPLDNQRMPQMLPQCCHPCPYHHPLTSHSSHQECHPEAGPAAPSALASCCMQPHSEYSASLCPNHSPVYQTTCCLQPSPSFCLHHPWPDHFQHQPVQQHIANIRPSRPFKLPKSYAALIADWPVVVLGMCTMFIVVCALVGVLVPELPDFSDPLLGFEPRGTAIGQRLVTWNNMVKNTGYKATLANYPFKYADEQAKSHRDDRWSDDHYEREKREVDWNFHKDSFFCDVPSDRYSRVVFTSSGGETLWNLPAIKSMCNVDNSRIRSHPQFGDLCQRTTAASCCPSWTLGNYIAILNNRSSCQKIVERDVSHTLKLLRTCAKHYQNGTLGPDCWDMAARRKDQLKCTNVPRKCTKYNAVYQILHYLVDKDFMTPKTADYATPALKYSMLFSPTEKGESMMNIYLDNFENWNSSDGVTTITGIEFGIKHSLFQDYLLMDTVYPAIAIVIVLLVMCVYTKSMFITLMTMFAIISSLIVSYFLYRVVFHFEFFPFMNLTALIILVGIGADDAFVLCDVWNYTKFDKPHAETSETVSITLQHAALSMFVTSFTTAAAFYANYVSNITAIRCFGVYAGTAILVNYVLMVTWLPAVVVLHERYLLNIFTCFKKPQQQIYDNKSCWTVACQKCHKVLFAISEASRIFFEKVLPCIVIKFRYLWLFWFLALTVGGAYIVCINPKMKLPSLELSEFQVFRSSHPFERYDAEYKKLFMFERVHHGEELHMPITVIWGVSPEDNGNPLNPKSKGKLTLDSSFNIASPASQAWILHFCQKLRNQTFFYQTDEQDFTSCFIETFKQWMENQDCDEPALYPCCSHWSFPYKQEIFELCIKRAIMELERSTGYHLDSKTPGPRFDINDTIRAVVLEFQSTYLFTLAYEKMHQFYKEVDSWISSELSSAPEGLSNGWFVSNLEFYDLQDSLSDGTLIAMGLSVAVAFSVMLLTTWNIIISLYAIISIAGTIFVTVGSLVLLGWELNVLESVTISVAVGLSVDFAVHYGVAYRLAPDPDREGKVIFSLSRVGSAMAMAALTTFVAGAMMMPSTVLAYTQLGTFMMLIMCISWAFATFFFQCMCRCLGPQGTCGQIPLPKKLQCSAFSHALSTSPSDKGQSKTHTINAYHLDPRGPKSELEHEFYELEPLASHSCTAPEKTTYEETHICSEFFNSQAKNLGMPVHAAYNSELSKSTESDAGSALLQPPLEQHTVCHFFSLNQRCSCPDAYKHLNYGPHSCQQMGDCLCHQCSPTTSSFVQIQNGVAPLKATHQAVEGFVHPITHIHHCPCLQGRVKPAGMQNSLPRNFFLHPVQHIQAQEKIGKTNVHSLQRSIEEHLPKMAEPSSFVCRSTGSLLKTCCDPENKQRELCKNRDVSNLESSGGTENKAGGKVELSLSQTDASVNSEHFNQNEPKVLFNHLMGEAGCRSCPNNSQSCGRIVRVKCNSVDCQMPNMEANVPAVLTHSELSGESLLIKTL
partner: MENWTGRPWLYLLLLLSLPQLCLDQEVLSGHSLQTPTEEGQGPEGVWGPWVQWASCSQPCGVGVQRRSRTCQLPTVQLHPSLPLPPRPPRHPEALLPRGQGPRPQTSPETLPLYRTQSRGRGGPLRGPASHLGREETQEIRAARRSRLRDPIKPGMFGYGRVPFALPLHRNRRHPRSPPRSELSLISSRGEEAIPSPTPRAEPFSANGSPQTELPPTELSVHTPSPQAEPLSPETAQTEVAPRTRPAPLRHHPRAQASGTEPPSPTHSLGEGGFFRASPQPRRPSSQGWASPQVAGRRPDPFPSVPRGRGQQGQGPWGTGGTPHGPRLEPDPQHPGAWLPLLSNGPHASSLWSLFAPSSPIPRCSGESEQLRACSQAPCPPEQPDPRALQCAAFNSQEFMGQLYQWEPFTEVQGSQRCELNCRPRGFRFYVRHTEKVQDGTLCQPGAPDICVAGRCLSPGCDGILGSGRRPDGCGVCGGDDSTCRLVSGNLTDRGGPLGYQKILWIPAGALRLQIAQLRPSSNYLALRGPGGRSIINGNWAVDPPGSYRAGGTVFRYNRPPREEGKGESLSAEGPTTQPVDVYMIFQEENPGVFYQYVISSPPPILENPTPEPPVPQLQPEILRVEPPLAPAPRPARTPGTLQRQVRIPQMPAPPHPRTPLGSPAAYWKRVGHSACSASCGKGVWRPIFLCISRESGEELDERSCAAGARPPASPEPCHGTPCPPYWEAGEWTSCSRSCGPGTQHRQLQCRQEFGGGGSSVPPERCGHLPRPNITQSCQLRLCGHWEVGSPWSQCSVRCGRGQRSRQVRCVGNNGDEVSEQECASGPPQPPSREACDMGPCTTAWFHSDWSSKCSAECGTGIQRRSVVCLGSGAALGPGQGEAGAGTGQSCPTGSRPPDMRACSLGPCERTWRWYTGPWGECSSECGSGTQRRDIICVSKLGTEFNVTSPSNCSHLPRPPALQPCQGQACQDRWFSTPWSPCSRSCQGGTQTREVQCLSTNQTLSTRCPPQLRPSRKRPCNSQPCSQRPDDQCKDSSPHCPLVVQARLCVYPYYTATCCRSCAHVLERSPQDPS
B4: Fibronectin type III and SPRY domain-containing protein 2 (Homo sapiens), A1L4K1 (parent)
chain: MEEESGEELGLDRSTPKDFHFYHMDLYDSEDRLHLFPEENTRMRKVVQAEMANESRGAGDGKAQRDLQEEVDELVHLYGLEDDHELGDEFVDENIPRTGVSEYPPYMMKRRDPAREQRDWRLSGEAAEAEDLGFGGWGSAGQCQDLREAYRYTHGRASEEYECYVIPEEEDEEEAADVFCVTCKTPIRAFQKVFDEHKEHEVIPLNEALESAKDEIHKNMYKLEKQIIEMENFANHLEEVFITVEENFGKQEQNFESHYNEILETLAQKYEEKIQALGEKKKEKLEALYGQLVSCGENLDTCKELMETIEEMCHEEKVDFIKDAVAMADRLGKFLKTKTDVEISAQPEFEDQTLDFSDVEQLMGSINTIPAPSAPVINPQVPNSATGSSVRVCWSLYSDDTVESYQLSYRPVQDSSPGTDQAEFTVTVKETYCSVTNLVPNTQYEFWVTAHNRAGPSPSSERAVYMTAPSPPIIKTKEIRSCEEAVLICWESGNLNPVDSYTVELTQAESPEASGVTESVVGIPTCESVVQLQPGRSYIIYVRALNMGGPSVRSEPATVHTIGSYFRLNKDTCHPWLTISEDGLTAVRSERRTPARELSPSDTHFTRCVAVMGNLIPVRGHHYWEVEVDEHLDYRVGVAFADVRKQEDLGANCLSWCMRHTFASSRHKYEFLHNRTTPDIRITVPPKKIGILLDYEHSKLSFFNVDLSQHLYTFSCQLHEFVHPCFSLEKPGCLKVHNGISMPKHVTFY
partner: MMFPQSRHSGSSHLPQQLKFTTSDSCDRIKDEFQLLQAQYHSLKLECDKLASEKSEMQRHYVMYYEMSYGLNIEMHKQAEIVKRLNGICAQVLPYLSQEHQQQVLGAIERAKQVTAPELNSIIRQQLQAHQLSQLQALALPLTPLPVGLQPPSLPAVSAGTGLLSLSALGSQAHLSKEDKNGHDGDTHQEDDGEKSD

Variants of: B1
Conditions: with kifc3_human KIFC3, Q9BVG8

effect of a mutation on the interaction | Variant
disrupting interaction strength | K104T

Variants of: B2
Conditions: with tuft1_human TUFT1, Q9NNX1

effect of a mutation on the interaction | Variant
with no effect | R563Q
with no effect | H223L

Variants of: B3
Conditions: with atl4_human ADAMTSL4, Q6UY14

effect of a mutation on the interaction | Variant
with no effect | E103D
with no effect | E103K

Variants of: B4
Conditions: with tle5_human TLE5, Q08117

effect of a mutation on the interaction | Variant
with no effect | K333T
